Assay results: patent US20260174875A1 (Novo Nordisk A/S, priority 2023, published 2026)
Square brackets hold non-standard residues; d marks the D form. Chem. 28 = not defined here; Chem. 29 = not defined here; Aib = CC(C)(N)C(=O)O

T1: human GIP receptor (human, UniProt P48546 22-466)
T1 sequence (looked up): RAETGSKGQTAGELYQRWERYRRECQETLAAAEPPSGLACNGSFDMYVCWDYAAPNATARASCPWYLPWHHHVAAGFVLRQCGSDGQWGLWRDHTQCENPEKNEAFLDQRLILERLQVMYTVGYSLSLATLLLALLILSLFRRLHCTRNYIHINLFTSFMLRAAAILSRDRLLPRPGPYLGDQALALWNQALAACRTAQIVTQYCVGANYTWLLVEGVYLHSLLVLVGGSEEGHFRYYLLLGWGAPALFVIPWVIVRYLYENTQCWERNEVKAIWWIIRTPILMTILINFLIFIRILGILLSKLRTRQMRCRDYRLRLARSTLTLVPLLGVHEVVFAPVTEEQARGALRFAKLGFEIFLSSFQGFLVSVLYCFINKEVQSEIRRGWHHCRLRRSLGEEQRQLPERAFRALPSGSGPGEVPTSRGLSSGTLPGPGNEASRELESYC

T2: human amylin-3(a) receptor (human, UniProt P30988 25-474; O60896 24-148)
T2 sequence (looked up) 1: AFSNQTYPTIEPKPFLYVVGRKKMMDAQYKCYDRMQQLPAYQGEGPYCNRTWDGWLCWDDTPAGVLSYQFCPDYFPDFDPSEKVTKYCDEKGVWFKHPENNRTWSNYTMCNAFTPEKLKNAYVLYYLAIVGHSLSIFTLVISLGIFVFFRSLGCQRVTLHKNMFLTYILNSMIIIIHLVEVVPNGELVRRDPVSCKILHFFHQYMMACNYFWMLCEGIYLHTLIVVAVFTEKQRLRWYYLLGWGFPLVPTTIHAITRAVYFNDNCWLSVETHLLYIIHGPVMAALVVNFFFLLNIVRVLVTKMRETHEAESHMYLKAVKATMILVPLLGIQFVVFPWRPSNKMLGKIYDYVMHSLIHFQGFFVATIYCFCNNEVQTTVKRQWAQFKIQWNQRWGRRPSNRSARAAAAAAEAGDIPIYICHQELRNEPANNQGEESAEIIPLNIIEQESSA
T2 sequence (looked up) 2: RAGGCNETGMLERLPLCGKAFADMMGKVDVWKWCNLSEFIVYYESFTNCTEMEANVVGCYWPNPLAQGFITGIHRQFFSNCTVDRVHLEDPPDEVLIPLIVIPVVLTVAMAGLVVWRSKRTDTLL


Experiments:
Test in all cases: cell-based or functional assay
[1] = molecular target: T3, human GLP-1 receptor (human, UniProt P43220 24-463)
[2] = molecular target: T1, human GIP receptor
[3] = molecular target: T2, human amylin-3(a) receptor
[4] = molecular target: T3, human GLP-1 receptor; remark: listed apart in the source
[5] = molecular target: T1, human GIP receptor; remark: listed apart in the source
[6] = molecular target: T2, human amylin-3(a) receptor; remark: listed apart in the source

Binder	hGLP-1R Potency, no HSA, EC50 [pM] [1] [pM]	hGIPR Potency, no HSA, EC50 [pM] [2] [pM]	hAMYR3 Potency, no HSA, EC50 [pM] [3] [pM]	hGLP-1R Potency, 1% HSA, EC50 [pM] [4] [pM]	hGIPR Potency, 1% HSA, EC50 [pM] [5] [pM]	hAMYR3 Potency, 1% HSA, EC50 [pM] [6] [pM]
Compound 29 (reading uncertain) peptide: Y[Aib]EGTFTSDYSILLEEQAAREFIEWLLAGGPSK(Chem. 28)GEASELSTAALGRLSAELHYLATLPRTETGSGSP-NH2	27.1	2.62	3.09			
Compound 47 (reading uncertain) peptide: H[Aib]HGTFTSDYSILLEEQAAREFIEWLLAGGPSK(Chem. 28)GAGQAPGQAPGASHLSTAQTQRLSAELHELATLPRTETGSGSP-NH2	3.15	2.02	2.57	67.5	162	55.8
Compound 22 (reading uncertain) peptide: H[Aib]HGTFTSDYSILLEEQAAREFIEWLLAGGPSK(Chem. 28)GAPPPSLAQTLAQTLASELSTAALGRLSAELHELATLPRTETGSGSP-NH2	11.3	35.8	10.9			
Compound 32 (reading uncertain) peptide: Y[Aib]EGTFTSDYSILLEEQAAREFIEWLLAGGPSK(Chem. 28)GAEASELSTAALGRLSAELHELATLPRTETGSGSP-NH2	27.6	8.09	10.1			
Compound 39 (reading uncertain) peptide: Y[Aib]EGTFTSDYSILLEEQAAREFIEWLLAGGPSK(Chem. 28)GGQEPGQEPGEASHLSTAQTQRLSAELHELATLPRTETGSGSP-NH2	23.7	1.62	5.75	1930	352	140
Compound 37 (reading uncertain) peptide: H[Aib]HGTFTSDYSILLEEQAAREFIEWLLAGGPSK(Chem. 28)GAPPPSGGGEASHLSTAQTARLSAELHRLADLPRTETGSGSP-NH2	3.94	2.34	2.98	188	133	75.7
Compound 30 (reading uncertain) peptide: H[Aib]HGTFTSDYSILLEEQAAREFIEWLLAGGPSK(Chem. 28)GAPPPSGGGEASELSTAALGRLSAELHRLATLPRTETGSGSP-NH2	6.37	6.8	2.28			
Compound 27 (reading uncertain) peptide: Y[Aib]EGTFTSDYSILLEEQAAREFIEWLLAGGPSK(Chem. 28)GEASELSTAQLGRLSAELHRLATLPRTETGSGSP-NH2	26.2	2.11	3.82			
Compound 36 (reading uncertain) peptide: H[Aib]HGTFTSDYSILLEEQAAREFIEWLLAGGPSK(Chem. 28)GEASHLSTAQTARLSAELHELATLPRTETGSGSP-NH2	3.19	1.96	3.84	208	226	137
Compound 45 (reading uncertain) peptide: H[Aib]HGTFTSDYSILLEEQAAREFIEWLLAGGPSK(Chem. 28)GALAQTLGTNEASHLSTAQTQRLSAELHELATLPRTETGSGSP-NH2	4.78	2.63	4.69	112	132	62.4
Compound 31 (reading uncertain) peptide: Y[Aib]EGTFTSDYSILLEEQAAREFIEWLLAGGPSSK(Chem. 28)APPPSGGGEASELSTAALGRLSAELHRLATLPRTETGSGSP-NH2	47.8	4.73	2.69			
Compound 20 (reading uncertain) peptide: Y[Aib]EGTFTSDYSILLEEQAAREFIEWLLAGGPSK(Chem. 29)GASELSTAALGRLSAELHRLATLPRTETGSGSP-NH2	40.6	4.82	3.65			
Compound 21 (reading uncertain) peptide: Y[Aib]EGTFTSDYSILLEEQAAREFIEWLLAGGPSK(Chem. 28)GALAQTLAQTLASELSTAALGRLSAELHELATLPRTETGSGSP-NH2	41.2	8.63	12			
Compound 23 (reading uncertain) peptide: Y[Aib]EGTFTSDYSILLEEQAAREFIEWLLAGGPSK(Chem. 28)GALAQTLGTNEASELSTAALGRLSAELHELATLPRTETGSGSP-NH2	15.3	1.2	5.17			
Compound 48 (reading uncertain) peptide: Y[Aib]EGTFTSDYSILLEEQAAREFIEWLLAGGPSSGALAQTLAQTLASHLSTAQTQRLSAELHK(Chem. 28)LATLPRTETGSGSP-NH2	64.8	7.02	3.2	105	54	78.5
Compound 43 (reading uncertain) peptide: H[Aib]HGTFTSDYSILLEEQAAREFIEWLLAGGPSK(Chem. 28)GEASQLSTAALGRLSAELHRLADLPRTETGSGSP-NH2	4.31	4.38	3.13	41.5	186	56.5
Compound 24 (reading uncertain) peptide: Y[Aib]EGTFTSDYSILLEEQAAREFIEWLLAGGPSK(Chem. 28)GALAQTLFVNQASELSTAALGRLSAELHELATLPRTETGSGSP-NH2	51.5	2.34	4.24			
Compound 38 (reading uncertain) peptide: Y[Aib]EGTFTSDYSILLEEQAAREFIEWLLAGGPSK(Chem. 28)GGQAPGQAPGEASHLSTAQTQRLSAELHELATLPRTETGSGSP-NH2	12	1.37	3.63	2350	336	172
Compound 25 (reading uncertain) peptide: H[Aib]HGTFTSDYSILLEEQAAREFIEWLLAGGPSK(Chem. 28)GEASELSTAALGRLSAELHRLATLPRTETGSGSP-NH2	2.87	4.27	3.22			
Compound 28 (reading uncertain) peptide: Y[Aib]EGTFTSDYSILLEEQAAREFIEWLLAGGPSK(Chem. 28)GEASELSTAALARLSAELHRLATLPRTETGSGSP-NH2	96	3.5	2.28			
